Measured values taken from IntAct's records for PubMed 12629052.

Molecular target: fkb1a_human FKBP1A (UniProt P62942)
Sequence (P62942 whole entry): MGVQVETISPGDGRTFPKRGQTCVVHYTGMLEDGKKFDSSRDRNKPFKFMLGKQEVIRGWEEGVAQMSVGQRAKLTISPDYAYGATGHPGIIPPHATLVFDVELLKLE

- effect of a mutation on the interaction: disrupting interaction
Substance: Ryanodine receptor 1 (Oryctolagus cuniculus (Rabbit)), P11716 S2843D
